According to patent US11653679B2, “High-purity steviol glycosides” (PureCircle Sdn Bhd, priority 2014, dated 2023):
Changes are numbered by the printed parent chain.

How the values were obtained:
[1] = Solubility of reb M in water and solvents; assay type: physicochemical
Procedure: Other properties of the pure reb M compound include a melting point of 249-250° C., and a specific rotation of [α]D^25−19.0° in 50% ethanol (C=1.0). The solubility of reb Min water is around 0.3%, and increases with an increase in temperature.
Reb M is soluble in diluted solutions of methanol, ethanol, n-propanol, and isopropanol. However, it is insoluble in acetone, benzene, chloroform, and ether.

[2] = Heat and pH stability of reb M; assay type: physicochemical
[3] = Sweetness of reb M compared to a 10% sucrose solution
Description: The high purity reb M obtained in this invention, having a molecular weight of 1291.29, a molecular formula of C56H90O33, CAS registry number 1220616-44-3, and the structure presented in FIG. 1, is in the form of a white and odorless powder. The compound is about 200 times sweeter than sugar when compared to a 10% sucrose solution.

[4] = Catalytic reaction Rebaudioside A to Rebaudioside D with in-vitro produced UGT91D2 (Example 5); assay type: biochemical; conditions: after 120 h, in-vitro produced UGT91D2, 0.1 mM Rebaudioside A, 30° C.
Procedure: The total volume of the reaction was 0.5 mL with the following composition: 50 mM sodium phosphate buffer pH 7.2, 3 mM MgCl2, 3.8 mM UDP-glucose, 0.1 mM Rebaudioside A and 180 μL of in-vitro produced UGT91D2. The reactions were run at 30° C. on an orbitary shaker at 135 rpm. For each sample, 450 μl of reaction mixture was quenched with 45 μL of 2N H2SO4 and 405 μL of 60% MeOH. After centrifugation, the supernatant was analyzed by HPLC (CAD). HPLC indicated a 4.7% conversion of rebaudioside A to rebaudioside D after 120 h.

[5] = Transformation of Rubusoside to Stevioside with in-vivo preparations of UGT91D2 (Example 19); assay type: biochemical; conditions: per mL of lysate; 1 U transforms 1 μmol of substrate in 1 hour at 30° C. and pH 7.2
Procedure: Activity tests were performed at 5 mL scale with 1000 μL of lysate for the transformation of Rubusoside to Stevioside using 0.5 mM of substrate, 2.5 mM of UDP-Glucose and 3 mM MgCl2 in 50 mM Sodium Phosphate buffer at pH 7.2. Samples were taken and analyzed by HPLC.

[6] = Directed evolution of UGT76G1, Rebaudioside D to Rebaudioside M, round 1 (Example 26); assay type: biochemical; conditions: 100 μL fresh lysate, 0.5 mM Rebaudioside D, 30° C., pH 7.2
Outline: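 Conversion and initial rate were determined by HPLC with CAD detection on samples taken at 2, 4, 7 and 24 h. Reactions ran at 30 °C in 50 mM phosphate buffer pH 7.2 with lysate, Rebaudioside D (0.5 mM), UDP-glucose (2.5 mM) and MgCl2 (3 mM).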

[7] = Directed evolution of UGT76G1, Rebaudioside D to Rebaudioside X, round 2 (Example 41); assay type: biochemical; conditions: baseline clone Round1-Var94 defined as 100%, 100 μL lysate, 0.5 mM Rebaudioside D, 30° C., pH 7.2
Procedure: Lysis was performed by addition of Bugbuster® Master mix (Novagen®) to the thawed cells and the lysate was recovered by centrifugation. Activity tests were performed with 100 μL of fresh lysate that was added to a solution of Rebaudioside D (final concentration 0.5 mM), MgCl2 (final concentration 3 mM) and UDP-Glucose (final concentration 2.5 mM) in 50 mM phosphate buffer pH 7.2.
The reaction was allowed to run at 30° C. and samples were taken after 2, 4, 7 and 24 h. to determine conversion and initial rate by HPLC (CAD detection) using the analytical method that was described above for the transformation of Rebaudioside D to Rebaudioside X. In parallel the experiments were performed with baseline clone, Round1-Var94. The conversion after 22 h. and initial rate for this baseline clone was defined as 100% and the normalized conversions and initial rates for the round 2 clones are depicted in the following table: […]

[8] = Activity of UGT76G1_Sc for conversion of Rebaudioside D to Rebaudioside M (Example 35); assay type: biochemical; conditions: 21 h., based on initial concentration of Rebaudioside D
Procedure: UGT76G1_Sc was prepared according to EXAMPLE 34. Activity tests were performed at 2 mL scale with 200 μL of lysate for the transformation of Rebaudioside D using 0.5 mM of substrate, 2.5 mM of UDP-Glucose and 3 mM MgCl2 in 50 mM Sodium Phosphate buffer at pH 7.2. Samples were taken and analyzed by HPLC. The corresponding chromatogram is depicted in FIG. 64.

C=C1C[C@@]23CC[C@H]4[C@@](C)(CCC[C@@]4(C)C(=O)O[C@@H]4O[C@H](CO)[C@@H](O)[C@H](O[C@@H]5O[C@H](CO)[C@@H](O)[C@H](O)[C@H]5O)[C@H]4O[C@@H]4O[C@H](CO)[C@@H](O)[C@H](O)[C@H]4O)[C@@H]2CC[C@]1(O[C@@H]1O[C@H](CO)[C@@H](O)[C@H](O[C@@H]2O[C@H](CO)[C@@H](O)[C@H](O)[C@H]2O)[C@H]1O[C@@H]1O[C@H](CO)[C@@H](O)[C@H](O)[C@H]1O)C3 [reb M, Rebaudioside M]
solubility in acetone, benzene, chloroform, and ether [1]: insoluble
solubility in diluted solutions of methanol, ethanol, n-propanol, and isopropanol [1]: soluble
solubility in water ([1]; increases with an increase in temperature): around 0.3%
heat and pH stability [2]: heat and pH-stable
sweetness relative to sugar [3]: about 200 times sweeter than sugar

B1: UGT91D2: UDP-glucosyltransferase, Genbank accession no. ACE87855.1 (protein, UniProt B3VI56 1-473, looked up)
UDP-glycosyltransferase 91D2: MATSDSIVDDRKQLHVATFPWLAFGHILPYLQLSKLIAEKGHKVSFLSTTRNIQRLSSHISPLINVVQLTLPRVQELPEDAEATTDVHPEDIPYLKKASDGLQPEVTRFLEQHSPDWIIYDYTHYWLPSIAASLGISRAHFSVTTPWAIAYMGPSADAMINGSDGRTTVEDLTTPPKWFPFPTKVCWRKHDLARLVPYKAPGISDGYRMGLVLKGSDCLLSKCYHEFGTQWLPLLETLHQVPVVPVGLLPPEVPGDEKDETWVSIKKWLDGKQKGSVVYVALGSEVLVSQTEVVELALGLELSGLPFVWAYRKPKGPAKSDSVELPDGFVERTRDRGLVWTSWAPQLRILSHESVCGFLTHCGSGSIVEGLMFGHPLIMLPIFGDQPLNARLLEDKQVGIEIPRNEEDGCLTKESVARSLRSVVVEKEGEIYKANARELSKIYNDTKVEKEYVSQFVDYLEKNTRAVAIDHES
conversion of rebaudioside A to rebaudioside D [4]: 4.7%

B2: Example 15: UGT91D2 lysate using pMAL plasmid and BL21 expression strain (protein, UniProt B3VI56 1-473, looked up)
UDP-glycosyltransferase 91D2: B1 UDP-glycosyltransferase 91D2
modifications: MBP fusion from pMAL, E. coli lysate
notes: UGT91D2 lysate using pMAL plasmid and BL21 expression strain
Transformation activity Rubusoside to Stevioside [5]: 9 mU mL^−1

B3: Example 17: UGT91D2 lysate using pET30a+ plasmid and Tuner (DE3) expression strain (protein, UniProt B3VI56 1-473, looked up)
UDP-glycosyltransferase 91D2: B1 UDP-glycosyltransferase 91D2
modifications: E. coli lysate
notes: UGT91D2 lysate using pET30a+ plasmid and Tuner (DE3) expression strain
Transformation activity Rubusoside to Stevioside [5]: 28 mU mL^−1

B4: Example 18: UGT91D2 lysate using pET30a+ plasmid and ArcticExpress expression strain (protein, UniProt B3VI56 1-473, looked up)
UDP-glycosyltransferase 91D2: B1 UDP-glycosyltransferase 91D2
modifications: E. coli lysate
notes: UGT91D2 lysate using pET30a+ plasmid and ArcticExpress expression strain
Transformation activity Rubusoside to Stevioside [5]: 21 mU mL^−1

B5: UGT76G1var94: UGT76G1 variant, mutations Q266E_P272A_R334K_G348P_L379G (protein, UniProt Q6VAB4 1-458, looked up, variant Q266E P272A R334K G348P L379G)
UDP-glycosyltransferase 76G1: MENKTETTVRRRRRIILFPVPFQGHINPILQLANVLYSKGFSITIFHTNFNKPKTSNYPHFTFRFILDNDPQDERISNLPTHGPLAGMRIPIINEHGADELRRELELLMLASEEDEEVSCLITDALWYFAQSVADSLNLRRLVLMTSSLFNFHAHVSLPQFDELGYLDPDDKTRLEEQASGFPMLKVKDIKSAYSNWQILKEILGKMIKQTKASSGVIWNSFKELEESELETVIREIPAPSFLIPLPKHLTASSSSLLDHDRTVFEWLDQQAPSSVLYVSFGSTSEVDEKDFLEIARGLVDSKQSFLWVVRPGFVKGSTWVEPLPDGFLGERGKIVKWVPQQEVLAHPAIGAFWTHSGWNSTLESVCEGVPMIFSDFGGDQPLNARYMSDVLKVGVYLENGWERGEIANAIRRVMVDEEGEYIRQNARVLKQKADVSLMKGGSSYESLESLVSYISSL
conversion Reb D to Reb M after 24 h [6]: 72.0%
initial rate [6]: 7.9E+07 Reb M area/min
Normalized conversion Reb D to Reb X after 22 h. [7]: 100%
Normalized initial rate (0-4 h) [7]: 100%

B6: UGT76G1_Sc: UGT76G1 produced in S. cerevisiae, lysate (protein, UniProt Q6VAB4 1-458, looked up)
UDP-glycosyltransferase 76G1: B5 UDP-glycosyltransferase 76G1 with E266Q, A272P, K334R, P348G, G379L
modifications: S. cerevisiae lysate
Rebaudioside D conv. (reaction time) ([8]; 200 μL lysate, 0.5 mM substrate, 2.5 mM UDP-Glucose, pH 7.2): 85% (21 h.)
Rebaudioside M selectivity [8]: 100%
